Legend:
MBP-AtTZF1 TZF [1] = biological target: T1, MBP-AtTZF1 TZF (Arabidopsis thaliana, UniProt O82307 129-195); test: fluorescence anisotropy
T1 sequence: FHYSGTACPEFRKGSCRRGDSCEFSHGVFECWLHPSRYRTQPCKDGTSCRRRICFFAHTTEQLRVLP

GST-AtTZF1 full-length = biological target: T2, GST-AtTZF1 full-length (Arabidopsis thaliana, UniProt O82307 1-315); test: fluorescence anisotropy
T2 sequence: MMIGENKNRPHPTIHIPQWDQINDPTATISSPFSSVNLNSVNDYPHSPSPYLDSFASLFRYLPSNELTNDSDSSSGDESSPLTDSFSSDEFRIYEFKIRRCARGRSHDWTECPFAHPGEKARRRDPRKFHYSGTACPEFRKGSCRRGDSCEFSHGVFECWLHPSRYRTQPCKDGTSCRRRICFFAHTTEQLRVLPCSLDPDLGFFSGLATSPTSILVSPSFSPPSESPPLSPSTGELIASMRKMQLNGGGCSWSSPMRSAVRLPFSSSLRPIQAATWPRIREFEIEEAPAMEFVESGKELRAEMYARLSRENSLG

MBP-AtTZF1 RR-TZF [2] = biological target: T3, MBP-AtTZF1 RR-TZF (Arabidopsis thaliana, UniProt O82307 86-195); test: fluorescence anisotropy
T3 sequence: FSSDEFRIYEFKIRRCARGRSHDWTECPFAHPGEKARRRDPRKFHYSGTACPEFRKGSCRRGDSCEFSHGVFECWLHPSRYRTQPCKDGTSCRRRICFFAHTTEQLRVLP

MBP-AtTZF1 RR = biological target: T4, MBP-AtTZF1 RR (Arabidopsis thaliana, UniProt O82307 86-128); test: EMSA
T4 chain: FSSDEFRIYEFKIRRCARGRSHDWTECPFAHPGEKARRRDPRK

MBP-AtTZF1 TZF [3] = biological target: T1, MBP-AtTZF1 TZF; test: EMSA
MBP-AtTZF1 RR-TZF [4] = biological target: T3, MBP-AtTZF1 RR-TZF; test: EMSA

Binder	Kd (GST-AtTZF1 full-length) [nM]	Kd (MBP-AtTZF1 RR-TZF [2]) [nM]	further results
UUUUUUUUUUUUUUUUUUU (ssRNA) [Fl-polyU]	2270 ± 190	470 ± 30	Kd (MBP-AtTZF1 TZF [1]): 7370 ± 120 nM
UAUUUAUUAUUUAUUUAUU (ssRNA) [Fl-ARE19]	4550 ± 130	410 ± 50	–
UAUUUAUUAUUUAUUUAUU (ssRNA) [ARE19]	–	–	binding result (MBP-AtTZF1 RR): no binding; binding result (MBP-AtTZF1 TZF [3]): no binding
UGUUUGUUGUUUGUUUGUU (ssRNA) [MutG]	–	–	binding result (MBP-AtTZF1 RR-TZF [4]): no binding

Reference: article PMC4026020
